This data set is described as follows: yeast display, Sf9 membrane polyspecificity reagent, FACS + sequencing; frameworks hold sequencing errors. The method, boiled down: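 Nanobodies from a synthetic yeast display library (Saccharomyces cerevisiae BJ5465), induced 36–48 hours with galactose, were stained 1 hour at 4 °C with 10% biotinylated, detergent-solubilized Sf9 membrane reagent, enriched on streptavidin microbeads, then FACS-sorted. Anti-HA (expression) and streptavidin (reagent binding) fluorescence set low and high (top ~1%) gates. Polyreactivity labels come from the gate of origin. Genes were colony-PCR amplified, MiSeq 2 × 250 sequenced and filtered by CDR length.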
Take “QVQLVESGGGLVQAGGSLRLSCAASGSTFYRYAMGWYRQAPGKERELVASLTGSGGRTYYADSVKGRFTISRDNAKNTVYLQMNSLKPEDTAVYYCAARLYVRSVIGNAIVKYDYWGQGTQVTVSS”: the “polyreactivity (PSR sort gate)” value is “high polyreactivity”. In the case of “QVQLVESGGGLVQAGGSLRLSCAASGSTFYRYTMRWYRQAPGKERELVASIRWTGGRTNYADSVKGRFTISRDNAKNTVYLQMNSLKPEDTAVYYCAAYLKYPYAASYGSWGQGTQVTVSS” it was “high polyreactivity”; in that of “QVQLVESGGGLVQAGGSLRLSCAASGSTFYSNAMGWYRQAPGKERELVAAIDWGGGSTYYADSVKGRFTISRDNAKNTVYLQMNSLKPEDTAVYYCATDANGYYNYDYWGQGTQVTVSS”, “low polyreactivity”; in that of “QVQLVESGGGLVQAGGSLRLSCAASGSTFYSNAMGWYRQAPGKERELVAGIDTSDGSTNYADSVKGRFTISRDHAMNTVYLQMNSLKPEDTAVYYCAADYTQPGFVSYDYWGQGSQVTVSS”, “low polyreactivity”. With “QVQLVESGGGLVQAGGSLRLSCAASGSTFYSNAMGWYRQAPGKERELVASIRFSGVITTYADSVKGRFTISRDNAKNTVYLQMNSLKPEDTAVYYWAAGYLSTTAYDYWGQGTQVTVSS”, the “polyreactivity (PSR sort gate)” value is given as “low polyreactivity”.

“QVQLVESGGGLVQAGGSLRLSCAASGSTFYSNVMGWYTQATGKEREFVAGISGSGGSTYYADSVKGRFTISRDNAKNTVYLQMNSLKPDDTAVYYCAKYRYSRYFRYDYWGQGTQVTVSS”: the “polyreactivity (PSR sort gate)” value was “high polyreactivity”. As to “QVQLVESGGGLVQAGGSLRLSCAASGSTFYSYAMGWYRQAPGKERELVAAIDSGGSTYYADTVKGRFTISRDNAKTTVYLQKNSLKPEDTAVYYCAVRVTSYYRTKDYWGQGTQVTVSS”, the “polyreactivity (PSR sort gate)” value is “low polyreactivity”. In the case of “QVQLVESGGGLVQAGGSLRLSCAASGSTFYSYAMGWYRQAPGKERELVAAIDWSGDNTNYADSVKGRFTISRDNAKNTVYLQMNSLKPEDTAVYYCAAVYSYYRLYAYPAYYYWGQGTQVTVSS” it was “low polyreactivity”. As to “QVQLVESGGGLVQAGGSLRLSCAASGSTFYSYAMGWYRQAPGKERELVAAITKGGGSTYYADSVKGRFTISRDNAKNTVYLQMNSLIPEDTAVYYCAAPGLYWYYTRSVYDYWGQGTQVTVSS”, the “polyreactivity (PSR sort gate)” value is reported as “high polyreactivity”. As for “QVQLVESGGGLVQAGGSLRLSCAASGSTFYSYAMGWYRQAPGKERELVAAITSGGSTNYADSVKGRFTISRDNAKNTVYLQMNSLKPEDTAVYYCAAVVSTVDGMEYWGQGTQVTVSS”, the entry is “low polyreactivity”; as for “QVQLVESGGGLVQAGGSLRLSCAASGSTFYTNAMGWDRPAPGKEREVVAAISWSGSSTYADSVKGRFTISRDNAKNTVYLQMNSLKPEDTAVYYCAADWFKLRTDYYWGQGTQVTVSS”, “low polyreactivity”; as for “QVQLVESGGGLVQAGGSLRLSCAASGSTFYTNAMGWYRQAPGKERELVAAISASVGSTYYADSVKGRFTISRDNAKNTVYLQMNSLKPEDTAVYYCAADVWASRRYDYWGQGTQVTVSS”, “low polyreactivity”.

Consider “QVQLVESGGGLVQAGGSLRLSCAASGSTFYTNPMGWYRQAPGKERELVAAISGSGGSTYYADSVKGRFTISRDNAKNTVYLQMNSLKPEYTAVYYCAARSRYYDTRFDYWGQGTQVTVSS”, for which the “polyreactivity (PSR sort gate)” value is given as “low polyreactivity”. As for “QVQLVESGGGLVQAGGSLRLSCAASGSTFYTYTAMGWYRQAPGKERELVAAITWRGGSTYYADSVKGRFTISRDNAKNTVYLQLNSLKPEDTAVYYCNTVHYYRDYDYWGQGTQVTVSS”, the entry is “high polyreactivity”; as for “QVQLVESGGGLVQAGGSLRLSCAASGSTFYVNAMGWYRQAPGKERELVAAIRYSGGRTYYADSVKGRFTISRDNAKNTVYLQMNSLKPEDTAVYYCAATTYYGGLYTREFDYWGQGTQVTVSS”, “low polyreactivity”. As for “QVQLVESGGGLVQAGGSLRLSCAASGSTFYVNAMGWYRQAPGKERYADSVKGRFTISRDNAKNTVYLQMNSLKPEDTAVYYCAAKVPEPPSLDESDYWGQGTQVTVSS”, the entry is “low polyreactivity”. As for “QVQLVESGGGLVQAGGSLRLSCAASGSTFYVNDMGWYRQAPGKERELVATISSGSSTYYADSVKGRFTISRDNAKNTVYLQMNSLKPEDTAVYYCAADGVAEEGFDARYDYWGQGTQVTVSS”, the entry is “low polyreactivity”; as for “QVQLVESGGGLVQAGGSLRLSCAASGSTFYVNTLGWYRQAPGKERELVAAISGSGTSTYYADSVKGRFTISRDNAKNTVYLQMNSLKPEDTAVYYCNKYQLVRTYGSYSYYYWGQGTQVTVSS”, “high polyreactivity”; as for “QVQLVESGGGLVQAGGSLRLSCAASGSTFYVYAMGWYRQAPGKEREFVAAISFSSGSTYYADSVKGRFTISRDNAKNTVYLQMNMMNQEDTAVYDCAARYRYPRYIGYGYGGAFVYWGQGTQVTVSS”, “high polyreactivity”.

Consider “QVQLVESGGGLVQAGGSLRLSCAASGSTFYVYAMGWYRQAPGKERELVAAIRGGGSTNYADSVKGRFTISRDNAKNTVYLQMNSLKPEDTAVYYCAKLPYTRTYLGSLYDYWGQGTQVTVSS”, for which the “polyreactivity (PSR sort gate)” value is “high polyreactivity”. As for “QVQLVESGGGLVQAGGSLRLSCAASGSTFYVYGMGWYRQAPGKERELVATISSSGAITYYADSVKGRFTISRDNAKNTVYLQMNSLKPEDTAVYYCARTGSLLSQVWYTYWGQGTQVTVSS”, the entry is “low polyreactivity”; as for “QVQLVESGGGLVQAGGSLRLSCAASGSTFYWNVMGWYRQAPGKERELVAAINRSDGSTYYADSVKGRFTISRDNAKNTVYLQMNSLKPEDTAVYFCNAVTKHPQSVPYAYGYWGQGTQVTVSS”, “high polyreactivity”.

In the case of “QVQLVESGGGLVQAGGSLRLSCAASGSTFYWYAMGWYRHAPGKEREFVADIDWSGGSTYYADSVKGRFTISLDNAKNTVYLQMNSLKPEDTAVYYCAAVGAAGQDNYWGQGTQVTVSS”, the “polyreactivity (PSR sort gate)” value was “high polyreactivity”.

Turning to “QVQLVESGGGLVQAGGSLRLSCAASGSTFYWYAMGWYRQAPGKERELVAAIDSGGSTNYADSVKGRFTISRDNAKNTVYLQMNSLKPEDTAVYYCATVYYTIWDPTYEYDYWGQGTQVTVSS”, the “polyreactivity (PSR sort gate)” value is on record as “low polyreactivity”.

“QVQLVESGGGLVQAGGSLRLSCAASGSTFYWYAMGWYRQAPGKERELVAAISSGGSTYYADSVKGRFTISRDNAKNTVYLQMNSLKPEDTAVYYCAAQTPYYLWYDTGDYWGQGTQVTVSS”: the “polyreactivity (PSR sort gate)” value is recorded as “high polyreactivity”.

Consider “QVQLVESGGGLVQAGGSLRLSCAASGSTFYYGMGWYRQAPGKERELVAAISSRGGTTYYADSVKGRFTISRDNAKNTVYLQMNSLKPEDTAVYYCAAPVPYYVPRRNEGDYWGQGTQVTVSS”, for which the “polyreactivity (PSR sort gate)” value is listed as “low polyreactivity”. In the case of “QVQLVESGGGLVQAGGSLRLSCAASGSTFYYNAMGWYRQAPGKEREFVAAINWRGGSTYYADSVKGRFTISRDNAKNTVYLQMNSLTPEDTAVYYCAAEEPSTYYYVRSGYDYHFWEMYSWGQGTQVTVSS” it was “low polyreactivity”; in that of “QVQLVESGGGLVQAGGSLRLSCAASGSTFYYNAMGWYRQAPGKERELVAAITFTGGSTYADSVKGRFTISRDNAKNTVYLQMNSLKPEDTAVYYCAATIQGHDYLGTGYDYWGQGTQVTVSS”, “low polyreactivity”; in that of “QVQLVESGGGLVQAGGSLRLSCAASGSTFYYNGMGWYRQAPGKERELVAAITWTGDSTYYADSVKGRFTISRDNAKNTVYLQMNCLKPEDTAVYYCAAYYRKTGYDYWGQGTQVTVSS”, “high polyreactivity”.

In the case of “QVQLVESGGGLVQAGGSLRLSCAASGSTFYYNTMGWYRQAPGKERELVAAISSSGGTTYYADSVKGRFTISRDNAKNTVYLQMNSLKPEDTAVYYCNVATIWYSYARGYGYWGQGTQVTVSS”, the “polyreactivity (PSR sort gate)” value is given as “high polyreactivity”.

Regarding “QVQLVESGGGLVQAGGSLRLSCAASGSTFYYNTMGWYRQAPGKERELVAAISWRGGSTYYADSVKGRYTISRDNAKNTVYLQMNSLKPEDTAVYYCAALTYYGSDYWGQGTQVTVSS”, the “polyreactivity (PSR sort gate)” value is listed as “high polyreactivity”. In the case of “QVQLVESGGGLVQAGGSLRLSCAASGSTFYYNVMGSYRQAPGKERELVAAITLSGGSTYADSVKGRFTISRDNAKKTVYLQINSLKPEDTAVYYCAKKGRYGRWGYKFDYWGQGTQVTVSS” it was “low polyreactivity”.

As for “QVQLVESGGGLVQAGGSLRLSCAASGSTFYYYAMGCYRQAPGKERELVAAINSSGGNTYYADSVKGRFTISRDNAKNTVYLQMNCLKPEDTAVYYCATEYYWLQDYDYWGQGTQVTVSS”, the “polyreactivity (PSR sort gate)” value is listed as “low polyreactivity”.

As to “QVQLVESGGGLVQAGGSLRLSCAASGSTFYYYAMGGYRQAPGKERELVAAINDAGGTNYADSVKGRFTISRDNAKNTVYLQMNSLKPEDTAVYYCAADGRIYLTYHEMEYWGQVTQVTVSS”, the “polyreactivity (PSR sort gate)” value is “low polyreactivity”.

Take “QVQLVESGGGLVQAGGSLRLSCAASGSTFYYYAMGWYRQAPGKEREFVAAISSSTGSTYYADSVKGRFTISRDNAKNTVYLQMNSLKPEDTAVYYCNALTWYTSQDYDYWGQGTQVTVSS”: the “polyreactivity (PSR sort gate)” value was “high polyreactivity”. As to “QVQLVESGGGLVQAGGSLRLSCAASGSTFYYYAMGWYRQAPGKERELVAAIDRDDRTNYADSVKGRFTISRDNAKNTVYLQMNSLKPEDTAVYNSAADSSERRLLDFDYWGQGTQVTVSS”, the “polyreactivity (PSR sort gate)” value is “low polyreactivity”. In the case of “QVQLVESGGGLVQAGGSLRLSCAASGSTFYYYAMGWYRQAPGKERELVAAIDWSGESTYYADSVKGRFTISRDKAKKTVYLQMHSLKPEDTAVYYCAADLGYPWGYVLFYKQSISYYYWGQGTQVTVSS” it was “low polyreactivity”; in that of “QVQLVESGGGLVQAGGSLRLSCAASGSTFYYYAMGWYRQAPGKERELVAAISNRDGRTYYADSVKGRFTISRDNAKNTVYLQMNSLKPEDTAVYYCNAYSYGHYYWGQGTQVTVSS”, “high polyreactivity”. In the case of “QVQLVESGGGLVQAGGSLRLSCAASGSTFYYYAMGWYRQAPGKERELVAAITKSGGSTYYADSVKGRFTISRDNAKNTVYLQMNSLKPEDTAVYYCAAYLRSGYKFDYWGQGTQVTVSS” it was “low polyreactivity”.

In the case of “QVQLVESGGGLVQAGGSLRLSCAASGSTFYYYAMGWYRQAPGKERELVAAITKSRGSTYYADSVKGRFTISRDNAKNTVYLQMNSLKPEDTAVYDCAAYLRSGYKFDYWGQGTQGTVSS”, the “polyreactivity (PSR sort gate)” value is “low polyreactivity”. In the case of “QVQLVESGGGLVQAGGSLRLSCAASGSTFYYYAMGWYRQAPGKERELVASINYSAGRTYYADSVKGRFTISRDNAKNTVYLQMNSLKPEDTAVYYCATGYPYHVNRYYYWGQGTQVTVSS” it was “high polyreactivity”.

The record behind these values is the nanobody polyreactivity screen of Harvey et al. (2022).
